The results in this text go back to publication PMC9751120 (2022).

Like-named read-outs stand apart in the source and are kept apart here.

One may read the Kd as a measure of binding affinity in units of concentration. A lower Kd goes with tighter binding.

Assay in all cases: FP
Test [1] has as its target T1, purified full-length ΔNp63α (human, UniProt Q9H3D4-2 1-586).
T1 chain: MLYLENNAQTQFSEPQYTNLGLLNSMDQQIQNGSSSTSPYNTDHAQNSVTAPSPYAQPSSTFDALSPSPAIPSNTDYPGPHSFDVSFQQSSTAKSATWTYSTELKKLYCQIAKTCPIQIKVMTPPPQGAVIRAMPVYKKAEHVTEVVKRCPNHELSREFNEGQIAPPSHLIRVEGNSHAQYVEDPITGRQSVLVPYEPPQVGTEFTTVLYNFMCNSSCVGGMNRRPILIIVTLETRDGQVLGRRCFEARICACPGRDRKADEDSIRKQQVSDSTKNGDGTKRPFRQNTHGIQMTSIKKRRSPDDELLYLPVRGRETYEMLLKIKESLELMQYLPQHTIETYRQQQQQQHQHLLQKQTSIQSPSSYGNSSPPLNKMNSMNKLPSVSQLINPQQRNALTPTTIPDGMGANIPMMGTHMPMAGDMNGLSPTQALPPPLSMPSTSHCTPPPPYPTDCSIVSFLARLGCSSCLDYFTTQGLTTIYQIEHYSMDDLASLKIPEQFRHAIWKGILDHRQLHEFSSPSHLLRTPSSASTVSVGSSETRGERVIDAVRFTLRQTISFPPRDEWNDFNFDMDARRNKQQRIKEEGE

The target of test [2] is T2, purified full-length TAp63α (human).
T2 chain: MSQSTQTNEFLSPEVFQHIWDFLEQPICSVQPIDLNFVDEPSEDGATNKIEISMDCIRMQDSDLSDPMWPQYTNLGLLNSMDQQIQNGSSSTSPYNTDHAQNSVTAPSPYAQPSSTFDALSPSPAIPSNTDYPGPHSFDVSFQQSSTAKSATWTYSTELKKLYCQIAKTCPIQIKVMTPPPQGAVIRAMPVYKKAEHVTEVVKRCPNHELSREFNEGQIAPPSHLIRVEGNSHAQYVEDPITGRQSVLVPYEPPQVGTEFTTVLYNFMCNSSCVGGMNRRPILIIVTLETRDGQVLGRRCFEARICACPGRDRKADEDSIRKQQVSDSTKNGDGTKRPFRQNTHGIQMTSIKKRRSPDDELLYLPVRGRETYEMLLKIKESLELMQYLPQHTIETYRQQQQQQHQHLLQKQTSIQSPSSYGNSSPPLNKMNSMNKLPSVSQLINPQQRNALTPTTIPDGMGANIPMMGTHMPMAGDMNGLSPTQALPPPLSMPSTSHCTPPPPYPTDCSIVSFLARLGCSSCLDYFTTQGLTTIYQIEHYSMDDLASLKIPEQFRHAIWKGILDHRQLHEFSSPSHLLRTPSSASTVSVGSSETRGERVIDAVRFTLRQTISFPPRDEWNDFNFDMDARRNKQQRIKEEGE

Test [3] concerns the target T1, purified full-length ΔNp63α.
Test [4] has as its target T2, purified full-length TAp63α.
Test [5] deals with T1, purified full-length ΔNp63α.
The target of test [6] is T2, purified full-length TAp63α.

B1: DARPin C14, Alexa 488 labeled (designed binder)
chain: GSDLGKKLLEAAQIGQLDEVRILMANGADVNASDTDGLTPLHLAAASGHLEIVEVLLKTGADVNATDKWGDTPLHLAASQGHLEIVEVLLKAGADVNATDFTGNTPLHLAAYIGHLEIVEVLLKHGADVNAQDKFGKTPFDLAIDNGNEDIAEVLQKAAGGC
modifications: Alexa Fluor 488 C5 maleimide on the introduced C-terminal cysteine
Take B1: the figures for the Kd in test [1] and in test [2] were 202 nM and 734 nM, respectively.

B2: DARPin A5, Alexa 488 labeled (designed binder)
chain: GSDLGKKLLEAARAGQDDEVRILMANGADVNAQDQYGWTPLHLAAARGHLEIVEVLLKTGADVNAVDKHGNTPLPLAASVGHLEIVEVLLKAGADVNAQDQFGRTPLHLAAMWGHLEIVEVLLKHGADVNAQDKFGKTAFDISIDNGNEDIVEVLQKAAGGC
modifications: Alexa Fluor 488 C5 maleimide on the introduced C-terminal cysteine
Take B2: the Kd in test [3] was 67.9 nM; in test [4], 296 nM.

B3: DARPin 8F1, Alexa 488 labeled (designed binder)
chain: GSDLGKKLLEAARAGQDDEVRILMANGADVNAADWLGYTPLHLAAWYGHLEIVEVLLKTGADVNARDAYGITPLHLAAYYGHLEIVEVLLKHGADVNAQDKFGKTPFDLAIDNGNEDIAEVLQKAAGGC
modifications: Alexa Fluor 488 C5 maleimide on the introduced C-terminal cysteine
Take B3: the Kd stood at 95.6 nM in test [5] and 6160 nM in test [6].
